This is an account of results in publication PMC2804858.

This experiment deals with Mcm2-7 hexamer (budding yeast (endogenous in yeast extract) | budding yeast) (UniProt P29469). In words: negative-stain electron microscopy.

One may read the stoichiometry N as a count of units in the complex or per binding partner. As to “Mcm2-7 hexamer, P29469 1-868; P24279 1-971; P30665 1-933; P29496 1-775; P53091 1-1017; P38132 1-845”, the stoichiometry N turned out to be 2 hexamers.
